Source: patent US12427163B2, “Anti-VTCN1 antibodies and antibody drug conjugates” (Bluefin BioMedicine, Inc., priority 2017, dated 2025)

T1: 293-VTCN1 cells (Homo sapiens, UniProt Q7Z7D3)
T1 construct: 293-VTCN1 (full length); expressed in transfected cells; host or cells: HEK293
T1 sequence (Q7Z7D3 25-282): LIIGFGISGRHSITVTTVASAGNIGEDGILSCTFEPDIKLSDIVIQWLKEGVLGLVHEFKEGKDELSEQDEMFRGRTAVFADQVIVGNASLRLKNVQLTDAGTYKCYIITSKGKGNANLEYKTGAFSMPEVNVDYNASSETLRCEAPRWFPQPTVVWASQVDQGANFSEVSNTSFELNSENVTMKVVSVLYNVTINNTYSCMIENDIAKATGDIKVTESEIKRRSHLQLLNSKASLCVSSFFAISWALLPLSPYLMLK

T2: VTCN1 IgV domain (Homo sapiens, UniProt Q7Z7D3)
T2 construct: one with an IgV domain only and one with an IgC domain only; expressed in transfected cells
T2 sequence (Q7Z7D3 35-146 limits assumed): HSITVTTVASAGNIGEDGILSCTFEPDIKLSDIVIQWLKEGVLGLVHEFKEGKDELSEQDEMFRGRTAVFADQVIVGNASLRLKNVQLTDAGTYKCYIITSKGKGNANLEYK

T3: VTCN1 IgC domain (Homo sapiens, UniProt Q7Z7D3)
T3 construct: one with an IgV domain only and one with an IgC domain only; expressed in transfected cells
T3 sequence (Q7Z7D3 153-241 limits assumed): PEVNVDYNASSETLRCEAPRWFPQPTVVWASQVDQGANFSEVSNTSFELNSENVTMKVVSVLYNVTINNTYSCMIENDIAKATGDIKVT

T4: 293-VTCN1 (mouse) (Mus musculus, UniProt Q7TSP5)
T4 construct: expressed in transfected cells
T4 sequence (Q7TSP5 25-257): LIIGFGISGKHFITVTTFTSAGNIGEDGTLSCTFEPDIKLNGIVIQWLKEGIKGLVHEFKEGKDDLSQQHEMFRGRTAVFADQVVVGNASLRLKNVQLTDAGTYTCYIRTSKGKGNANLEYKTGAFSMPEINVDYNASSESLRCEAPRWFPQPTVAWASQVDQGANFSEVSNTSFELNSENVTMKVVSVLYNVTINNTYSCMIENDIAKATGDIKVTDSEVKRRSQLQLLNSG

T5: human VTCN1 protein (Homo sapiens, UniProt Q7Z7D3)
T5 construct: His
T5 sequence (Q7Z7D3 25-282): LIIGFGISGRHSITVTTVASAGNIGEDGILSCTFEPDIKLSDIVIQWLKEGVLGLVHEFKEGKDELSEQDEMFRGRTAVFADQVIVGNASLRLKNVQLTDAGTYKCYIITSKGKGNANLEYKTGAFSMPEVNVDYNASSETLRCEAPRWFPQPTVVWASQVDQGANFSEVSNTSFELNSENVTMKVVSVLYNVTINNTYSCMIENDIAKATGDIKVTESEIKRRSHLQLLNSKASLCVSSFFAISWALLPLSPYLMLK

T6: mouse VTCN1 protein (Mus musculus, UniProt Q7TSP5)
T6 construct: His
T6 sequence (Q7TSP5 25-257): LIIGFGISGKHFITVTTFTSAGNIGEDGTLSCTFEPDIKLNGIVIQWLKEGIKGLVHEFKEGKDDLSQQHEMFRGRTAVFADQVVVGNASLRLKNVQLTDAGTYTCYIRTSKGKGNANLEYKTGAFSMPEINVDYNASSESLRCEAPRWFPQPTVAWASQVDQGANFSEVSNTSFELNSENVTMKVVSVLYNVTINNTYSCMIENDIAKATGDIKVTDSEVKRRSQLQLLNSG

T7: 293 cells expressing recombinant human VTCN1 (Homo sapiens, UniProt Q7Z7D3)
T7 construct: expressed in transfected cells; host or cells: 293 cells
T7 sequence (Q7Z7D3 25-282): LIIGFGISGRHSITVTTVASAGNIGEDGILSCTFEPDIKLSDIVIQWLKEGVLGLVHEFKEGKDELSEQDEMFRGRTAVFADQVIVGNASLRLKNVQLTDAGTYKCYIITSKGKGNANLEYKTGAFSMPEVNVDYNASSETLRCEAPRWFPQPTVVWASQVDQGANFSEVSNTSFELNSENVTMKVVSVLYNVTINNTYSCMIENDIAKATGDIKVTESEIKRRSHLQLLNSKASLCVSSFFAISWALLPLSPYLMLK


Legend:
[1] = biological target: T1, 293-VTCN1 cells; assay: Flow cytometry binding to 293-VTCN1 cells (full length)
Method: For each hybridoma, unique recombinant heavy chains were paired with unique recombinant light chains. These plasmid pairs were transfected into CHO cells in 24-well plates. Twelve days later conditioned medium from each pairing was subjected to concentration determination by OCTET™ and screened by Flow cytometric analysis for binding to 293-VTCN1 cells.
(§1) Briefly, the 7C8 antibody was incubated with 293 cells, 293-VTCN1 (full length), 293-VTCN1-IgV domain, 293-VTCN1-IgC domain cell lines for 30 min at 4° C., unbound antibody was washed away, cells were then incubated with anti-human-Alexa488 conjugate, and analyzed by flow cytometry.
Antibody concentration was determined by OCTET™ using protein G biosensor. 0.05 μg/ml, 0.1 μg/ml, 0.5 μg/ml, 1 μg/ml, 5 μg/ml, 10 μg/ml antibodies were incubated with live cells for 30 min. on ice, unbound antibodies were washed off, and a conjugated anti-mouse 2nd antibody was added to the wells for 15 min. Cells were washed twice with flow buffer and analyzed using MACSQuant Analyzer 10 flow cytometer (Miltenyi Biotec, Bergisch Gladbach, Germany). Results from flow cytometry assays indicate that mouse anti-VTCN1 antibodies are capable of binding to 293-VTCN1 cells and MX-1 cells.

[2] = tested on: 293-VTCN1 (monkey); assay: Flow cytometry binding to 293-VTCN1 (monkey) cells; parameters: species or system cynomolgus monkey
Text: (§2) Two constructs were made, one with an IgV domain only and one with an IgC domain only. 293 cells were transfected with VTCN1-IgV and VTCN1-IgC constructs, and stable cell lines of 293 expressing VTCN1-IgV or VTCN1-IgC domains were made. Expression constructs also made to express VTCN1 (monkey, 99% identical to human VTCN1) and VTCN1 (mouse, 88% identical to human VTCN1), stable 293-VTCN1 (monkey), and 293-VTCN1 (mouse) cell lines made by transfecting these constructs.
(§3) Flow cytometry analysis was also performed with 7C8 binding to 293-VTCN1 (monkey) and 293-VTCN1 (mouse).

[3] = biological target: T2, VTCN1 IgV domain; assay: Flow cytometry binding to 293-VTCN1-IgV domain cells; details: IgV domain only
Text: as §2, §1
(§4) It was also assessed whether these antibodies bind to IgV or IgC domain of VTCN1 protein, using 293-VTCN1-IgV domain expressing cells and 293-VTCN1-IgC domain expressing cells using FACS analysis, as in Example 3.

[4] = tested on: ZR-75-1 cells; assay: Flow cytometry binding to ZR-75-1 cells; parameters: species or system human
Method: (§5) Supernatant from hybridoma wells, containing VTCN1 specific antibodies, were re-tested on human breast cell lines SKBR3 and ZR-75-1. 70% confluent MX-1 cells in 10 cm dish were gently washed with 1× cold PBS once, 7 ml cold flow buffer (1×PBS, 0.5% BSA, 2 mM EDTA) was then added, the cells were gently scraped in to flow buffer using rubber cell lifter, pipet up down with 10 ml transfer pipets gently to resuspend the cells. The cells were pelleted by centrifuging them for 5 minutes at 1200 rpm at room temperature. The cell pellets were resuspended in cold flow buffer, the cells were counted and the concentration was adjusted to 1×10^6 cells per 1 mL. Using a multichannel pipette, 200 μL was collected and transferred to 96-V bottom polypropylene plates and spun at 1250 rpm for 5 min at 4° C. to pellet the cells. The cell pellets were resuspended with hybridoma supernatant diluted 2-fold with cold flow buffer and incubated at 4° C. for 30 min. After incubation, cells were washed 2× with flow buffer and then labeled with anti-rat Alexa 647 secondary antibodies for 30 min at 4° C. Unbound secondary antibodies were removed by washing the cells 2× with flow buffer. Cells were then resuspended in 200 μL of flow buffer containing PI to identify dead cells and remove from analysis. […]

[5] = tested on: SKBR3 cells; assay: Flow cytometry binding to SKBR3 cells (hybridoma screening); parameters: species or system human
Method: as §5

[6] = biological target: T3, VTCN1 IgC domain; assay: Flow cytometry binding to 293-VTCN1-IgC domain cells; details: IgC domain only
Text: as §2, §1, §4

[7] = tested on: MX-1 cells; assay: Flow cytometry binding to MX-1 cells; parameters: species or system human; details: TNBC cell line
Method: as §5, with “buffer.” for “buffer. Cells were then resuspended in 200 μL of flow buffer containing PI to identify dead cells and remove from analysis.”
Antibody concentration was determined by OCTET™ using protein G biosensor. […] Cells were washed twice with flow buffer and analyzed using MACSQuant Analyzer 10 flow cytometer (Miltenyi Biotec, Bergisch Gladbach, Germany). […]

[8] = biological target: T4, 293-VTCN1 (mouse); assay: Flow cytometry binding to 293-VTCN1 (mouse) cells
Text: as §2, §3

[9] = biological target: T5, human VTCN1 protein; assay: Affinity to recombinant VTCN1-his by OCTET Red (Protein A biosensors); assay type: binding; details: Table 12
Method: (§6) The affinity of antibodies to recombinant VTCN1 was determined on an OCTET™ Red (Pall, ForteBio) instrument. After loading reagents into a 96-well plate, the OCTET™ Red with Protein A-conjugated biosensors was programmed as follows: 30 seconds for baseline #1; 45 seconds to immobilize the antibody; 30 seconds for baseline #2; 300 seconds for association of antibody to recombinant VTCN1-his; and 300 seconds for dissociation of recombinant VTCN1-his from the antibody. Table 5 lists the affinity measured for selected antibodies.

[10] = tested on: cynomolgus monkey VTCN1 protein; assay: Affinity by OCTET, cynomolgus monkey VTCN1; assay type: binding; details: Table 12
Method: The affinity of antibodies to recombinant VTCN1 was determined on an OCTET™ Red (Pall, ForteBio) instrument. After loading reagents into a 96-well plate, the OCTET™ Red with Protein A-conjugated biosensors was programmed as follows: 30 seconds for baseline #1; 45 seconds to immobilize the antibody; 30 seconds for baseline #2; 300 seconds for association of antibody to recombinant VTCN1-his; and 300 seconds for dissociation of recombinant VTCN1-his from the antibody.

[11] = biological target: T6, mouse VTCN1 protein; assay: Affinity by OCTET, mouse VTCN1; assay type: binding; details: Table 12
Method: as §6

[12] = biological target: T7, 293 cells expressing recombinant human VTCN1; assay: Cell-based competition binding FACS assay against 6D9; details: 6D9 10 μg/ml, human antibody 1 μg/ml
Method: To assess if these human VTCN1 antibodies bind to same or different regions of VTCN1 protein, a cell-based competition binding FACS assay was performed. […] The cells were then resuspend in FACS buffer with DAPI, and analyzed by flow cytometry.

Molecule	binding to 293-VTCN1 cells (full length VTCN1) [1]	cross reactivity with monkey VTCN1 [2]	binding to IgV domain of VTCN1 [3]	binding to ZR-75-1 cells [4]	binding to SKBR3 cells [5]	binding to IgC domain of VTCN1 [6]	binding to MX-1 cells [7]	cross reactivity with mouse VTCN1 [8]	Human K(off) [9]	Human k(on) [9]	cynomolgus monkey k(off) [10]	cynomolgus monkey k(on) [10]	mouse k(off) [11]	mouse k(on) [11]	competition with 6D9 for binding to VTCN1 [12]
7C8: fully human VTCN1 antibody; VH SEQ ID NO: 212, VL SEQ ID NO: 216 (antibody, V domains shown) VH: QVQLQESGPGLVKPSETLSLTCAVSGYSISSGYYWGWIRQPPGKGLEWIGSIYHSGTTYYNPSLKSRVTISVDTSKNQFSLKLNSVTAADTAVYYCATYSSGWYFYFDYWGQGTLVTVSS VL: DIQLTQSPSFLSASVGDRVTITCRASQGISSYLAWYQQKPGKAPKLLIYVASTLQSGVPSRFSGSGSGTEFTLTISSLQPEDFATYYCQQLNSYPITFGQGTRLEIK	binds to full length VTCN1	cross reacts	does not bind	binds	binds	does not bind	binds	cross reacts							
12B5_44B1: fully human VTCN1 antibody; VH SEQ ID NO: 264, VL SEQ ID NO: 268 (antibody, V domains shown) VH: QVQLVQSGAEVKKPGSSMKVSCKASGDTFSSYAISWVRQAPGQGLEWMAGIIPVFGTAHNAQKFQGRVTITADKSTSTAYMELSSLRSEDTAVYYCTRGGPYFDYWGQGTLVTVSS VL: EIVMTQSPATLSVSPGERAALSCRASQSVSSNLAWYQQKPGQAPRLLIYGVSTRATGIPDRFNGSGSGTEFTLTISSLQSEDFGAYYCQQYKKWPFIFGPGTKLEIK									3.54E−04	1.61E+05	3.74E−04	1.80E+05	8.11E−03	2.15E+05	do not compete with 6D9
4C7_63A1: fully human VTCN1 antibody; VH SEQ ID NO: 248, VL SEQ ID NO: 252 (antibody, V domains shown) VH: QVQLQESGPGLVKPSGTLSLTCAVSGGSISSSNWWSWVRQPPGKGLEAIGEIYHSGNTNYNPSLKSRVTISVDKSKNQFSLKLSSVTAADTAIYYCARDGYSSGWYWGYFDYWGQGTLVTVSS VL: EIVMTQSPATLSVSPGERATLSCRASQSVNSNLAWYQQKPGQAPWLLIYGASTRATGIPARFSGSGSGTEFTLTISSLQSEDFAVYYCQQYNHWPYTFGQGTKLEIK									5.81E−03	1.19E+05	5.80E−03	1.23E+05	4.01E−03	9.07E+04	compete with 6D9
14D6_60B5: fully human VTCN1 antibody; VH SEQ ID NO: 278, VL SEQ ID NO: 281 (antibody, V domains shown) VH: QVQLVHSGAEVKRPGSSVKVSCKASGGTFSSYAISWVRQAPGQGLEWMGGIIPIFGIANYAQKFQGRVTIIADKSTRTAYMELSSLRSEDTAVYYCARGGPYFDYWGQGILVTVSS VL: EIVMTQSPATLSVSPGERATLSCRASQSVSSNLAWYQQKPGQAPRLLIYGASTRATGIPARFSGSGSGTEFTLTISSLQSEDFAVYYCQQYNKWPFTFGPGTKVDIK									6.29E−04	1.32E+05	6.91E−04	1.32E+05	6.47E−03	1.15E+05	do not compete with 6D9
16H12_60B4: fully human VTCN1 antibody; VH SEQ ID NO: 283, VL SEQ ID NO: 286 (antibody, V domains shown) VH: QVQVVQSGAEVKKPGSSVKVSCKASGDTFSNYAISWVRQAPGQGLEWMGGIIPIFGITNYAQKFQGRVTIIADKSTRTAYMELSSLRSEDTAVYYCSRGGPYFDYWGQGILVTVSS VL: EIVMTQSPATLSVSPGERATLSCRASQSVSSNLAWYQQKPGQAPRLLIYGASTRATGIPARFSGSGSGTEFTLTISSLQSEDFAVYYCQQYKKWPFTFGPGTKVDIK									1.95E−04	2.62E+05	2.40E−04	2.45E+05	3.76E−03	1.37E+05	do not compete with 6D9
